Test results reported in US20040266686A1 (Regeneron, published 2004).
Values belong to the binder of their own block, whether it stands above or below them.

What was measured:
[1] = biological target: T1, human VEGF165 (human, UniProt P15692-4 27-191); assay: cell-based or functional assay
[2] = biological target: T1, human VEGF165; assay: size exclusion chromatography under dissociative conditions (6M GuHCl), standard curves
Experimental: (a) Size Exclusion Chromatography (SEC) under native conditions. […] The sample was eluted with the same buffer at flow rate 40 μl/min. at room temperature. […] Fractions eluted between 1.1 and 1.2 ml were combined and guanidinium hydrochloride (GuHCl) was added to a final concentration 4.5M to dissociate the complex.
(b) Size Exclusion Chromatography (SEC) under dissociative conditions. To separate the components of the receptor-ligand complex and to determine their molar ratio, 50 μl of dissociated complex as described supra was loaded onto a Superose 12 PC 3.2/30 equilibrated in 6M GuHCl and eluted with the same solution at a flow rate 40 μl/min. at room temperature.
The stoichiometry of the receptor-ligand complex was determined from the peak area or the peak height of the components. […] To obtain a standard curve, four different concentrations (0.04 mg/ml−0.3 mg/ml) of either component were injected onto a Pharmacia Superose 12 PC 3.2/30 column equilibrated in 6M guanidinium chloride and eluted with the same solution at flow rate 40 μl/min. at room temperature. The standard curve was obtained by plotting peak area or peak height vs protein concentration.

[3] = biological target: T1, human VEGF165; assay: size exclusion chromatography with on-line light scattering
Experimental: (a) Size Exclusion Chromatography (SEC) with On-Line Light Scattering. Size exclusion chromatography column with a MiniDawn on-line light scattering detector (Wyatt Technology, Santa Barbara, Calif.) and refractive index (R1) detectors (Shimadzu, Kyoto, Japan) was used to determine the molecular weight (MW) of the receptor-ligand complex. Samples were injected onto a Superose 12 HR 10/30 column (Pharmacia) equilibrated in PBS buffer and eluted with the same buffer at flow rate 0.5 ml/min. at room temperature. […] MW was calculated from LS and R1 signals. The same procedure was used to determine MW of the individual components of the receptor-ligand complex.

[4] = biological target: T1, human VEGF165; assay: size exclusion chromatography (Superose 6), complex purified, dissociated in 6M guanidine hydrochloride, components quantified
Experimental: (b) Size Exclusion Chromatography. […] The receptor-ligand complex was then incubated in a buffer containing 6M guanidine hydrochloride in order to dissociate it into its component proteins.

T1 sequence (P15692 other isoform, or with tags, fused parts or gaps limits assumed): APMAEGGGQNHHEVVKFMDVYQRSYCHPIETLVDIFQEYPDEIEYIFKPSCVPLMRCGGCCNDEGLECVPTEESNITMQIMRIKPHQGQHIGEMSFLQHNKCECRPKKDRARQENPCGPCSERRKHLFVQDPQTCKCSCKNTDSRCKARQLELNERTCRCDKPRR

half maximal dose, VEGF165-induced cell proliferation (MG87 cells, MTS) [1]: 2 nM
B1: Flt1(1-3)-Fc (Fc fusion, human, UniProt P17948 27-331, looked up, not shown: a dimerising Fc or GST)
chain: SKLKDPELSLKGTQHIMQAGQTLHLQCRGEAAHKWSLPEMVSKESERLSITKSACGRNGKQFCSTLTLNTAQANHTGFYSCKYLAVPTSKKKETESAIYIFISDTGRPFVEMYSEIPEIIHMTEGRELVIPCRVTSPNITVTLKKFPLDTLIPDGKRIIWDSRKGFIISNATYKEIGLLTCEATVNGHLYKTNYLTHRQTNTIIDVQISTPRPVKLLRGHTLVLNCTATTPLNTRVQMTWSYPDEKNKRASVRRRIDQSNSHANIFYSVLTIDKMQNKDKGLYTCRVRSGPSFKSVNTSVHIYDK

molar ratio of VEGF165:receptor (from the peak area) [2]: 1.16 mol/mol | molar ratio of VEGF165:receptor (from the peak height) [2]: 1.1 mol/mol | stoichiometry of the complex [3]: 1 receptor:VEGF165 | half maximal dose, VEGF165-induced cell proliferation (MG87 cells, MTS) [1]: 0.8 nM | ratio of VEGF165 to receptor in the complex [4]: 1 VEGF165:receptor
B2: Flt1D2.Flk1D3.Fc?C1(a) (Fc fusion, human)
chain: GRPFVEMYSEIPEIIHMTEGRELVIPCRVTSPNITVTLKKFPLDTLIPDGKRIIWDSRKGFIISNATYKEIGLLTCEATVNGHLYKTNYLTHRQTNTIIDVVLSPSHGIELSVGEKLVLNCTARTELNVGIDFNWEYPSSKHQHKKLVNRDLKTQSGSEMKKFLSTLTIDGVTRSDQGLYTCAASSGLMTKKNSTFVRVHEKGPG
modifications: N-linked glycosylation: complete at Asn33, Asn193, Asn282; partial at Asn65 and Asn120 (peptide mapping numbering)
notes: domain: Ig domain 2;domain: Ig domain 3; Made in CHO cells, transiently or stably; also called R1R2; not shown: Fc?C1(a) portion

half maximal dose, VEGF165-induced cell proliferation (MG87 cells, MTS) [1]: 2 nM
B3: Flt1D2.VEGFR3D3.Fc?C1(a) (Fc fusion, not shown: a dimerising Fc or GST)
chain: GRPFVEMYSEIPEIIHMTEGRELVIPCRVTSPNITVTLKKFPLDTLIPDGKRIIWDSRKGFIISNATYKEIGLLTCEATVNGHLYKTNYLTHRQTNTIIDIQLLPRKSLELLVGEKLVLNCTVWAEFNSGVTFDWDYPGKQAERGKWVPERRSQQTHTELSSILTIHNVSQHDLGSYVCKANNGIQRFRESTEVIVHENGPG
